Data: the supplement of paper PMC10567573

B1: MMP1 (parent)
chain: FHGTRQYKFDPKTKRILTLQKANS

Variants of: B1
Test: protein stability index of a GFP-peptide fusion (GPS, HEK-293T) (PSI 1-6); higher = more stable
Conditions: c terminus: a fixed tail appended
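Further: lentivirally expressed fusions sorted by FACS into six bins by GFP to DsRed ratio, PSI derived from sequencing read proportions per bin multiplied by bin number.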

Protein stability index: each site, then its substitutions
R15: V 1.77, W 1.69, Y 1.57
I16: A 2.8, C 1.68, D 2.5, E 1.93, F 1.64, G 1.64, H 1.42, K 1.67, L 2.21, M 1.64, N 1.84, P 1.93, Q 1.94, R 1.36, S 1.7, T 1.91, V 2.25, W 1.95, Y 1.35
L17: A 1.92, C 2.02, D 1.91, E 1.59, F 1.56, G 2.38, H 2.17, I 1.78, K 2.1, M 1.53, N 1.6, P 1.57, Q 2.19, R 2.56, S 1.8, T 2.2, V 1.73, W 1.88, Y 1.95
T18: A 2.05, C 1.55, D 3.38, E 2.07, F 1.67, G 1.86, H 1.39, I 1.61, K 1.34, L 1.58, M 1.74, N 2.15, P 2.18, Q 1.73, R 1.68, S 1.9, V 1.04, W 2.4, Y 1.51
L19: A 1.54, C 1.63, D 2.49, E 1.73, F 1.68, G 2.94, H 1.59, I 2.05, K 2.05, M 1.91, N 1.94, P 1.87, Q 1.87, R 1.44, S 2.03, T 2.2, V 2.03, W 2.61, Y 2.34
Q20: A 2.46, C 2.16, D 1.88, E 2.03, F 1.91, G 2.01, H 2.09, I 1.78, K 1.84, L 2.12, M 1.45, N 1.73, P 2.06, R 2.37, S 2.28, T 1.8, V 1.75, W 2.77, Y 1.66
K21: A 2.02, C 2.53, D 1.88, E 2.86, F 2.14, G 1.11, H 2.33, I 1.78, L 1.32, M 1.54, N 2.27, P 2.04, Q 1.9, R 1.82, S 1.81, T 1.54, V 1.6, Y 2.43
A22: C 2.07, D 1.48, E 2.92, F 1.77, G 1.73, H 2.49, I 1.38, K 1.99, L 1.52, M 1.83, N 2.09, P 2.19, Q 2.06, R 1.65, S 2.51, T 1.68, V 1.45, W 1.6, Y 2.49
N23: A 1.37, C 2.32, D 2.46, E 1.91, F 1.25, G 1.39, H 1.88, I 2.87, K 3.21, L 2.08, M 1.8, P 1.67, Q 1.85, R 2.38, S 1.93, T 1.29, V 2.08, W 1.51, Y 2.1
S24: A 1.6, C 2.01, D 1.77, E 1.79, F 1.59, G 2.03, H 2.58, I 2.09, K 1.84, L 1.76, M 1.85, N 2.16, P 2.08
